Measurements: patent US20230313199A1, “TARGET FOR MODULATING BODY MASS” (Massachusetts Institute of Technology, priority 2020, published 2023)
Read-outs that look alike come from different tables or passages of the source. Residues, ends and D or L forms follow the SMILES beside them. *: point of attachment. Cbz = O=C(OCc1ccccc1)*

B4: endogenous MFSD7C of mouse bone marrow-derived macrophages (other, UniProt Q91X85 1-551, looked up)
chain: MVNESLNQEESNDRPAPESEFQMDTSYSTQPSGSIHPSVSGHPSVSGHPSVSGHPSVSIHPSVSIDPSVSVRPSSSALPSTLAQPSGLTHHSSLVREDSVIKVSKRRWVVVLVFSCYSLCNAFQWIQYGSINNIFMNFYGVSAFAIDWLSMCYMLTYIPLLLPVAWMLEKFGLRTIAITGSALNCLGAWVKLGSLEPHLFPVTMVGQVICSVAQVFILGMPSRIASVWFGADEVSTACSVAVFGNQLGIAIGFLVPPVLVPNIKDPEKLAYHISIMFYIIGGVATFLFILVIIVFKEKPKHPPSRAQSLSYALATTDASYLSSIVRLFKNLNFVLLVITYGLNAGAFYALSTLLNRMVILHFPGEEVNAGRIGLTIVIAGMFGAMISGIWLDKSKTYKETTLVVYIMTLVGMVVYTFTLNLNHLWVVFITAGTLGFFMTGYLPLGFEFAVELTYPESEGVSSGLLNVSAQVFGIVFTISQGQIIDNHGTMFGNIFLCVFLALGSALTAFIKSDLRRQRANKDAPETKVQEEEEEEEGSNTSKVPVVSEAHL

Key:
[1] = molecular target: T1, MFSD7C and SERCA2b (Mus musculus, UniProt Q91X85); test: Co-IP of MFSD7C and SERCA2b in transfected 293T cells; assay type: cell-based, murine; settings: 293T cells in the presence of MG132; none co-precipitated without
T1 construct: expressed in transfected cells; called 293T
Experimental: (§1) FIGS. 5A-5F show MFSD7C and heme regulate thermogenesis through SERCA2b in THP-1 cells. […] 30 hours later, MG132 was added into half of the cells and the other half was not treated. Another 35 hours later, some cells were treated with 40 μM heme for 1 hour before lysis. Cell lysates were immunoprecipitated with anti-FLAG antibody, and eluted, followed by anti-HA immunoprecipitation and elution. Total cell lysate and elute were subjected to Western blotting and probed with anti-SERCA2b or anti-MFSD7C antibodies. Shown are representative data from one of three experiments. […] 24 hrs later, cells were either not treated or treated with 10 μM MG132 for either 6 or 12 hours. The cells were lysed and subjected to FLAG pull-down and blotted with anti-MFSD7C, anti-SERCA2b and anti-ubiquitin antibodies. Shown are representative data from one of three experiments. […] Parental THP-1 cells were either not treated or treated with heme before lysis. Shown are representative data from one of four experiments. […] Shown are representative data from one of two experiments. […] Cells were washed and treated with 40 μM heme for one hour before flow cytometry. Representative FPT histograms from one of three experiments are shown. […] Shown are representative FPT histograms from one of three experiments. […]

[2] = tested on: SERCA2b; test: SERCA2b level and ubiquitination by pull-down and Western blotting in transfected 293T cells; assay type: cell-based, murine
Experimental: as §1

[3] = molecular target: T2, NTD of human MFSD7C (Homo sapiens, UniProt Q9UPI3); test: Isothermal titration calorimetry of NTD binding to heme; settings: ITC, 25° C., 3-site sequential binding model
T2 construct: Plasmid harboring GST-His-tag-SUMO-NTD (amino acids 1-84); GST-His-tag-SUMO (N, cleaved yes); made in house; host or cells: Escherichia coli Lemo21(DE3)
T2 sequence (Q9UPI3 1-84): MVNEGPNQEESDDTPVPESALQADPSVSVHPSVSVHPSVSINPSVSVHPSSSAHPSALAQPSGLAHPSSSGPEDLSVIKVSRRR

[4] = molecular target: T3, HP motif peptide (Homo sapiens, UniProt Q9UPI3); test: Isothermal titration calorimetry of HP motif peptide binding to heme (one-site model); settings: synthetic 14-amino acid HP motif peptide, one-site binding model
T3 construct: a synthetic 14-amino acid HP motif peptide; made in house; host or cells: chemical solid-phase synthesis (Koch Institute Biopolymers & Proteomics Core)

[5] = molecular target: endogenous human SERCA2b of THP-1 cells (human) (UniProt P16615); test: cell-based or functional assay
[6] = molecular target: T4, HA-tagged murine MFSD7C (mouse, UniProt Q91X85 1-551); test: co-IP and Western blot, co-transfected 293FT cells, without heme (less or very little with 10 or 40 µM heme)
T4 construct: Expressed by transfection in 293FT / HEK 293T cells; also called HA-MFSD7C; pCMV6-AN-3HA-MFSD7C; not shown: N-terminal HA tag from vector pCMV6-AN-3HA
T4 sequence (looked up): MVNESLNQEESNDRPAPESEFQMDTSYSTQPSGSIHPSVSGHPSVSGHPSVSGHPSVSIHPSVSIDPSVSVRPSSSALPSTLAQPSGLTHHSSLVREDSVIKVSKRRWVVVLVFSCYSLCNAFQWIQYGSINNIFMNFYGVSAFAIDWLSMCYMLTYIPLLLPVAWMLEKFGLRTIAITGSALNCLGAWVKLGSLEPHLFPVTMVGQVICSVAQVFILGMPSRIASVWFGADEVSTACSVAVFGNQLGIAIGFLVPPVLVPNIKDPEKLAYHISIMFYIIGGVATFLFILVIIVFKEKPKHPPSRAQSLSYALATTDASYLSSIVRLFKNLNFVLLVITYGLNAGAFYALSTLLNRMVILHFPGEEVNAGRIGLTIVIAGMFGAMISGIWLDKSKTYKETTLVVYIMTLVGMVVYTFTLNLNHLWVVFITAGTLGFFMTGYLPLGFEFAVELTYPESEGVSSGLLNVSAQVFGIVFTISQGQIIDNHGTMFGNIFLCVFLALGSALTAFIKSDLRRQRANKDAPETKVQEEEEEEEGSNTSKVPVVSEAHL
Experimental: (§2) Co-transfection and immunoprecipitation. For co-IP, HA-tagged MFSD7C was co-transfected with FLAG-tagged HMOX1 (Origene Catalog No. MR203944), CYC1, COX4I1, NDUFA4, ATP5h, ATP5c1 into 293FT cells using TransIT®-LT1 Transfection Reagent (Mirus). Thirty-six hours after transfection, the cells were lysed using cold Lysis Buffer containing 20 mM Tris-HCl (pH 7.4), 150 mM NaCl, 0.1% NP-40, 10% glycerol, proteinase inhibitor (Sigma Catalog No. 4693132001), and phosphatase inhibitors (Sigma Catalog No. 4906845001). The clear supernatants from the lysate were incubated with M2-magnetic beads conjugated with anti-FLAG antibody (Sigma Catalog No. M8823) for 2 hours at 4° C. Then the beads were washed twice and eluted by the 3× FLAG peptides (Sigma Catalog No. F4799).
(§3) To determine the effect of heme on MFSD7C interactions with ETC components, HMOX1 or SERCA2b, 293FT cells were transiently transfected with HA-tagged murine MFSD7C and FLAG-tagged murine CYC1, NDUFA4, COX4i1, ATP5h, ATP5c1, HMOX1 or SERCA2b. 35 hrs later, co-transfected cells were incubated with DMSO (vehicle) or 10 μM or 40 μM of heme for one hour before lysis. Cell lysates were precipitated with anti-HA antibody, eluted with HA peptide, further precipitated with anti-FLAG antibody, eluted with FLAG peptide, and then subjected to Western blotting with anti-HA and anti-FLAG antibodies. Cells were treated with proteasome inhibitor MG132 for co-IP between MFSD7C and SERCA2b.

[7] = molecular target: B4; test: co-IP of endogenous proteins, mouse bone marrow-derived macrophage lysate
[8] = molecular target: T4, HA-tagged murine MFSD7C; test: co-IP and Western blot, co-transfected 293FT cells, with or without 10 or 40 µM heme
Experimental: as §2
as §3, with “Cells were treated with proteasome inhibitor MG132 for co-IP between MFSD7C and SERCA2b.” left out

[9] = molecular target: T5, endogenous mouse SERCA2b (ATP2a2) (mouse, UniProt O55143 1-1044); test: co-IP of endogenous proteins, mouse bone marrow-derived macrophages
T5 construct: also called endogenous SERCA2b
T5 sequence (O55143 whole entry): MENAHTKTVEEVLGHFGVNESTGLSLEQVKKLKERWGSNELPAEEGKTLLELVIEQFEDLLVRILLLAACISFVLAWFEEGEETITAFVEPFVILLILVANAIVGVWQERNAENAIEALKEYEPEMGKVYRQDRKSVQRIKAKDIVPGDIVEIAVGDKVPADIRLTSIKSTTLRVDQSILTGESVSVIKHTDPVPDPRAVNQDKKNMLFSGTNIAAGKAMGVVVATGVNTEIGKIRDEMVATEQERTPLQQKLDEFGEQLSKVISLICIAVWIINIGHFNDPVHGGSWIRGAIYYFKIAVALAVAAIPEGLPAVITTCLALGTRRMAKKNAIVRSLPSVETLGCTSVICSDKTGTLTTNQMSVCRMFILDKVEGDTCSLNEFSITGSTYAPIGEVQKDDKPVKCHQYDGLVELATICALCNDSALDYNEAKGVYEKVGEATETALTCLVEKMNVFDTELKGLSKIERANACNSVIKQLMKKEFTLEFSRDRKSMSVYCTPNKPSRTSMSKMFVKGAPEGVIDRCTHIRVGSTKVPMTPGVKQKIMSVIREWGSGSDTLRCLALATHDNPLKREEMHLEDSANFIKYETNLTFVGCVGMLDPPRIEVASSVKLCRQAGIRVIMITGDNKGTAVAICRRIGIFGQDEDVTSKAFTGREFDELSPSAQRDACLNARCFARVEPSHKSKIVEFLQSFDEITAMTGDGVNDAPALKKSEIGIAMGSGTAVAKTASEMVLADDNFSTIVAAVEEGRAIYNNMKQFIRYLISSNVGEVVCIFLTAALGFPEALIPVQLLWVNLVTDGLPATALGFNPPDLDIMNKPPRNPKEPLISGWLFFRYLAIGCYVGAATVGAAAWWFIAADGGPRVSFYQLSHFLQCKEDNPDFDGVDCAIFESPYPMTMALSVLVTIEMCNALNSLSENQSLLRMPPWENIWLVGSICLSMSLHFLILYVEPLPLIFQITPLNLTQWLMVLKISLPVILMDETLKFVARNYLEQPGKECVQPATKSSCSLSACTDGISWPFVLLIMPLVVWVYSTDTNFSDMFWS

endogenous human SERCA2b of THP-1 cells (human), sequence (P16615 whole entry): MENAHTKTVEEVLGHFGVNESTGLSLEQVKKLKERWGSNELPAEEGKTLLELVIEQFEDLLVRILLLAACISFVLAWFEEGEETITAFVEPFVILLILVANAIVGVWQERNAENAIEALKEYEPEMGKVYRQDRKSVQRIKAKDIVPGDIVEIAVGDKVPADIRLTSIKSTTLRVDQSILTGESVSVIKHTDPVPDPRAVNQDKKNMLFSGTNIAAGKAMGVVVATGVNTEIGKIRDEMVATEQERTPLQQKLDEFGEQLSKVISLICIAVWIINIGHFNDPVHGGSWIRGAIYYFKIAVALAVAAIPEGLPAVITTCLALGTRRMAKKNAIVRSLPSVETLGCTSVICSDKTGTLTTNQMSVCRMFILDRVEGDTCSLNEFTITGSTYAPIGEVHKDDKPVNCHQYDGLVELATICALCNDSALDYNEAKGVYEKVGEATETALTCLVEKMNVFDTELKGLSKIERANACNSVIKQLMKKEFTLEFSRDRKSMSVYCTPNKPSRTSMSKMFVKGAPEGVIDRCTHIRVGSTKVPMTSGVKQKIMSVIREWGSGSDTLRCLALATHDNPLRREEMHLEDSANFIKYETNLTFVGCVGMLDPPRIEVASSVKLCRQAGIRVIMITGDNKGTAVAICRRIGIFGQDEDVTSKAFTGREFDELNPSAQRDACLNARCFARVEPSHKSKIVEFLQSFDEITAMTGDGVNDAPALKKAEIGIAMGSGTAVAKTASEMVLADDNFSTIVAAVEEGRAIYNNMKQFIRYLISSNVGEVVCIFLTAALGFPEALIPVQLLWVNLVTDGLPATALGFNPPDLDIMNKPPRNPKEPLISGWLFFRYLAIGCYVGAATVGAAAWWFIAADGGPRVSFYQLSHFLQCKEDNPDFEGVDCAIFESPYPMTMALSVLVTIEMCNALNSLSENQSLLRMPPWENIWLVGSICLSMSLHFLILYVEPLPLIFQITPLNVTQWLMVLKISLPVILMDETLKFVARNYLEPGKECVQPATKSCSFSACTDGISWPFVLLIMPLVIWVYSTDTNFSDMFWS

With `CC(C)C[C@@H](C=O)NC(=O)[C@H](CC(C)C)NC(=O)[C@H](CC(C)C)NC(=O)OCc1ccccc1` [MG132] (Cbz-Leu-Leu-Leu-aldehyde) the “SERCA2b co-precipitated with MFSD7C” value [1] was “an appreciable level was co-precipitated with MFSD7C”, the “full-length and ubiquitinated SERCA2b precipitated” value ([2]; 10 μM MG132 for 6 or 12 hours, longer treatment) was “more full-length and ubiquitinated SERCA2b was precipitated” and the “level of SERCA2b detected” value ([2]; presence vs absence of MG132) was “significantly higher level of SERCA2b was detected”.

`C=CC1=C(C)C2=Cc3c(C=C)c(C)c4[n]3[Fe][n]3c(c(C)c(CCC(=O)O)c3=CC3=NC(=C4)C(C)=C3CCC(=O)O)=CC1=N2` [heme] was tested, and the Kd ([3]; two strong of three heme sites on NTD, read-out: KD, two strong binding sites) was roughly 1 µM, the Kd ([3]; weaker of three heme sites on NTD, read-out: KD, one weaker site) was roughly 220 µM and the Kd [4] was roughly 1 µM.

“endogenous human MFSD7C of THP-1 cells (from UniProt Q9UPI3 1-526)” showed a Pearson's correlation coefficient value (co-localization, THP-1 cells after 40 µM heme for 1 hour) [5] of 0.67 and a Pearson's correlation coefficient value (co-localization, confocal microscopy of THP-1 cells) [5] of 0.89.

B1: FLAG-tagged murine CYC1 (other, mouse, UniProt Q9D0M3 85-325, looked up)
chain: SDLELHPPSYPWSHRGLLSSLDHTSIRRGFQVYKQVCSSCHSMDYVAYRHLVGVCYTEEEAKALAEEVEVQDGPNDDGEMFMRPGKLSDYFPKPYPNPEAARAANNGALPPDLSYIVRARHGGEDYVFSLLTGYCEPPTGVSLREGLYFNPYFPGQAIGMAPPIYTEVLEYDDGTPATMSQVAKDVATFLRWASEPEHDHRKRMGLKMLLMMGLLLPLTYAMKRHKWSVLKSRKLAYRPPK
notes: Complex III component; expressed by transfection; also called pCMV6-AC-DDK-Cyc1; not shown: C-terminal FLAG (DDK) tag
B1: binds [6].

B2: endogenous HMOX1 of mouse bone marrow-derived macrophages (enzyme, UniProt P14901 1-289, looked up)
chain: MERPQPDSMPQDLSEALKEATKEVHIQAENAEFMKNFQKGQVSREGFKLVMASLYHIYTALEEEIERNKQNPVYAPLYFPEELHRRAALEQDMAFWYGPHWQEIIPCTPATQHYVKRLHEVGRTHPELLVAHAYTRYLGDLSGGQVLKKIAQKAMALPSSGEGLAFFTFPNIDSPTKFKQLYRARMNTLEMTPEVKHRVTEEAKTAFLLNIELFEELQVMLTEEHKDQSPSQMASLRQRPASLVQDTAPAETPRGKPQISTSSSQTPLLQWVLTLSFLLATVAVGIYAM
B2: binds [7].

B3: FLAG-tagged murine HMOX1 (heme oxygenase-1) (enzyme, mouse, UniProt P14901 1-289, looked up)
chain: MERPQPDSMPQDLSEALKEATKEVHIQAENAEFMKNFQKGQVSREGFKLVMASLYHIYTALEEEIERNKQNPVYAPLYFPEELHRRAALEQDMAFWYGPHWQEIIPCTPATQHYVKRLHEVGRTHPELLVAHAYTRYLGDLSGGQVLKKIAQKAMALPSSGEGLAFFTFPNIDSPTKFKQLYRARMNTLEMTPEVKHRVTEEAKTAFLLNIELFEELQVMLTEEHKDQSPSQMASLRQRPASLVQDTAPAETPRGKPQISTSSSQTPLLQWVLTLSFLLATVAVGIYAM
notes: Expressed by transfection; also called pCMV6-AC-DDK-HMOX1; not shown: C-terminal FLAG (DDK) tag
B3: binds [8].

B4: binds [9].

B5: FLAG-tagged murine ATP5c1 (other, mouse, UniProt Q91VR2 26-298, looked up)
chain: ATLKDITRRLKSIKNIQKITKSMKMVAAAKYARAERELKPARVYGTGSLALYEKADIKAPEDKKKHLIIGVSSDRGLCGAIHSSVAKQMKNEVAALTAAGKEVMIVGVGEKIKGILYRTHSDQFLVSFKDVGRKPPTFGDASVIALELLNSGYEFDEGSIIFNQFKSVISYKTEEKPIFSLNTIATAETMSIYDDIDADVLQNYQEYNLANLIYYSLKESTTSEQSARMTAMDNASKNASDMIDKLTLTFNRTRQAVITKELIEIISGAAALD
notes: Complex V component; expressed by transfection; also called pCMV6-AC-DDK-ATP5c1; not shown: C-terminal FLAG (DDK) tag
B5: binds [6].

B6: FLAG-tagged murine NDUFA4 (other, mouse, UniProt Q62425 1-82, looked up)
chain: MLRQILGQAKKHPSLIPLFVFIGAGGTGAALYVMRLALFNPDVSWDRKNNPEPWNKLGPNEQYKFYSVNVDYSKLKKEGPDF
notes: Complex IV component; expressed by transfection; also called pCMV6-AC-DDK-Ndufa4; not shown: C-terminal FLAG (DDK) tag
B6: binds [6].
